9 sequences from the Immune Epitope Database (IEDB) can be followed below.

Assay [1] addresses HLA-B*48:01. Put plainly: IEDB peptide-MHC binding, purified MHC/competitive/fluorescence; filed as Kd, often an IC50 or EC50 that approximates it; ≥ and ≤ were set here for values at or beyond the usual limits of such assays.
For assay [2], the target named is HLA-C*03:03. Put plainly: IEDB peptide-MHC binding, purified MHC/direct/fluorescence; filed as Kd, often an IC50 or EC50 that approximates it; ≥ and ≤ were set here for values at or beyond the usual limits of such assays.
Assay [3] has as its target HLA-A*02:19. The description is as above.
For assay [4], the target named is HLA-A*02:01. Described as above.
For assay [5], the target named is HLA-A*02:11. The assay is described as above.
Assay [6] deals with HLA-A*02:12. Described as above.
Assay [7] has as its target HLA-A*69:01. The description is as above.
The target of assay [8] is HLA-B*15:42. Put plainly: IEDB peptide-MHC binding, purified MHC/competitive/fluorescence; filed as Kd, often an IC50 or EC50 that approximates it; ≥ and ≤ were set here for values at or beyond the usual limits of such assays. The conditions noted are these: source organism: Mycobacterium tuberculosis variant bovis BCG str. Pasteur 1173P2.
For assay [9], the target named is HLA-B*45:06. Described as above. The conditions noted are these: source organism: Mycobacterium tuberculosis variant bovis BCG str. Pasteur 1173P2.
Assay [10] addresses HLA-B*83:01. The assay is described as above. The conditions noted are these: source organism: Mycobacterium tuberculosis variant bovis BCG str. Pasteur 1173P2.
Assay [11] has as its target HLA-A*02:03. Put plainly: IEDB peptide-MHC binding, purified MHC/direct/fluorescence; filed as Kd, often an IC50 or EC50 that approximates it; ≥ and ≤ were set here for values at or beyond the usual limits of such assays.
In assay [12] the target is HLA-A*29:02. The description is as above.
The target of assay [13] is HLA-B*18:01. The description is as above.
Assay [14] addresses HLA-A*26:01. The description is as above.
Assay [15] addresses HLA-B*15:17. The assay is described as above.
Assay [16] deals with HLA-B*15:01. The assay is described as above.
Assay [17] deals with HLA-A*02:16. Described as above.
Assay [18] deals with HLA-B*27:03. Described as above.
The target of assay [19] is HLA-B*51:01. The assay is described as above.
In assay [20] the target is HLA-B*46:01. Described as above.
Assay [21] deals with HLA-B*57:01. The assay is described as above.
For assay [22], the target named is HLA-A*03:01. The description is as above.
For assay [23], the target named is HLA-A*02:03. As to the kind of experiment: IEDB peptide-MHC binding, purified MHC/competitive/fluorescence; filed as Kd, often an IC50 or EC50 that approximates it; ≥ and ≤ were set here for values at or beyond the usual limits of such assays. The following applies: source organism: Human immunodeficiency virus 1.
The target in assay [24] is HLA-A*30:01. The description is as above. The following applies: source organism: Human immunodeficiency virus 1.
Assay [25] deals with HLA-B*39:01. As to the kind of experiment: IEDB peptide-MHC binding, purified MHC/direct/fluorescence; filed as Kd, often an IC50 or EC50 that approximates it; ≥ and ≤ were set here for values at or beyond the usual limits of such assays. The conditions noted are these: source organism: Entamoeba histolytica HM-1:IMSS.
Assay [26] deals with HLA-A*24:03. The description is as above.
Assay [27] has as its target HLA-A*68:02. The assay is described as above.
The target in assay [28] is HLA-A*23:01. The assay is described as above. The conditions noted are these: source organism: Influenza A virus (A/Memphis/1/1986(H3N2)).
Setting [29] is: source organism: Entamoeba histolytica HM-1:IMSS.
The mark [30] stands for this setting: source organism: Francisella tularensis subsp. tularensis FSC033.
The mark [31] stands for this setting: source organism: Francisella tularensis subsp. holarctica LVS.
[32] abbreviates: source organism: Listeria monocytogenes serotype 4b str. H7858.
Setting [33] is: source organism: Influenza A virus (A/Memphis/1/1986(H3N2)).

For the sequence FQLYPPQIL, the values for the Kd in [1] (setting [29]) and in assay [2] (setting [29]) were 77 nM and 33 nM, respectively.

With FLYDISISL, the Kd – broadly, the constant that tells how readily two partners part at equilibrium – in assay [3] (setting [30]) was 0.007 µM; in assay [4] (setting [31]), 0.0011 µM; in assay [5] (setting [30]), no more than 0.001 µM; in [6] (setting [30]), 0.003 µM; in [7] (setting [31]), 15.7 nM; in assay [2] (source organism: Francisella tularensis subsp. tularensis FSC198), no more than 1 nM.

On to AIYDTMQYV, for which the Kd in [8] is no less than 5 µM; in assay [9], no less than 5 µM; in assay [10] it was no less than 5 µM; in assay [11] (source organism: Mycobacterium tuberculosis str. Haarlem), 0.003 µM; in assay [7] (source organism: Mycobacterium tuberculosis) it was 6 nM.

In turn, LQAMHGFPL yielded a Kd in [1] (source organism: Escherichia coli O157:H7 str. EDL933) of 96.8 nM.

With FPDGKPFTL, the Kd in assay [12] (setting [32]), in assay [13] (setting [32]), in assay [14] (setting [32]), in assay [15] (setting [32]), in assay [16] (setting [32]) and in assay [17] (setting [32]) was no less than 20 µM in each case. Also, the Kd in assay [3] (setting [32]), in [18] (setting [32]), in [19] (setting [32]), in assay [4] (setting [32]), in assay [5] (setting [32]) and in assay [20] (setting [32]) was no less than 20 µM in each case. In addition, the Kd in assay [6] (setting [32]), in [11] (setting [32]), in assay [21] (setting [32]) and in assay [22] (setting [32]) was no less than 20 µM in each case.

For RSLYNTIAVLY, the Kd in assay [23] came to 679 nM; in [24] it was 1910 nM.

For the sequence FIILSTGKY, the Kd in [13] (setting [29]) is no less than 20 µM; in [25] it was no less than 20 µM; in assay [15] (setting [29]), 0.072 µM; in assay [17] (setting [29]), no less than 20 µM; in [3] (setting [29]), no less than 20 µM; in assay [18] (setting [29]) it was no less than 20 µM. The Kd in assay [4] (setting [29]), in [5] (setting [29]), in [6] (setting [29]), in assay [21] (setting [29]) and in assay [22] (setting [29]) was no less than 20 µM each time.

As to ERYPGGVSL, the Kd in assay [12] (setting [32]), in [13] (setting [32]), in assay [14] (setting [32]), in assay [15] (setting [32]), in [16] (setting [32]) and in assay [26] (setting [32]) was no less than 20 µM in each case. Besides, the Kd in [17] (setting [32]), in assay [3] (setting [32]), in assay [18] (setting [32]), in assay [19] (setting [32]), in assay [4] (setting [32]) and in assay [5] (setting [32]) was no less than 20 µM in each case. The Kd in [20] (setting [32]), in assay [27] (setting [32]), in [6] (setting [32]), in assay [11] (setting [32]), in assay [21] (setting [32]) and in assay [22] (setting [32]) was no less than 20 µM each time. Moreover, the Kd in assay [7] (setting [32]) is no less than 20000 nM.

With NHDGIQAGV, the Kd in assay [28], in assay [12] (setting [33]), in [13] (setting [33]), in assay [14] (setting [33]), in assay [15] (setting [33]) and in assay [16] (setting [33]) was no less than 20 µM in each case. The Kd in assay [26] (setting [33]), in [17] (setting [33]), in assay [3] (setting [33]), in assay [18] (setting [33]), in assay [19] (setting [33]) and in assay [4] (setting [33]) was no less than 20 µM in each case. Besides, the Kd in [5] (setting [33]), in assay [20] (setting [33]), in assay [27] (setting [33]), in [6] (setting [33]), in [11] (setting [33]) and in assay [21] (setting [33]) was no less than 20 µM in each case. Further, the Kd was no less than 20 µM in assay [22] (setting [33]) and no less than 20000 nM in assay [7] (setting [33]).
